Test results published in PMC10976746, “Iguratimod, an allosteric inhibitor of macrophage migration inhibitory factor (MIF), prevents mortality and oxidative stress in a murine model of acetaminophen overdose” (Molecular Medicine, 2024).

Target: T1, Human macrophage migration inhibitory factor (MIF) (human), P14174
T1 chain: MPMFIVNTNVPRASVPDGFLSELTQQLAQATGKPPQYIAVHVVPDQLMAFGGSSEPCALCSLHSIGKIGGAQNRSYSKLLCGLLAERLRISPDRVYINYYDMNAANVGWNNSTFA
Test: crystal structure; MIF (~18 mg/mL) co-crystallised with the small molecule T-614 at 1:3 protein-inhibitor molar ratio; hanging drop vapor diffusion; 20 mM Tris HCl pH 7.5, 2 M (NH4)2SO4, 3% 2-propanol; 20 C
Settings: remark: other sources report otherwise

B1: Human macrophage migration inhibitory factor (MIF), P14174 1-115 (natural protein)
chain: T1 chain
In the case of B1, the stoichiometry N is reported as 3.
